How the values were obtained:
[1] = target: T1, MLO-Y4 cell surface proteins (Mus musculus, UniProt P63038); experiment: Crosslinking/co-immunoprecipitation/mass spectrometry (TMT quantitative proteomics) to identify irisin receptors; type: binding; settings: co-precipitated protein Hspd1 (CH60_MOUSE)
T1 construct: endogenous in cells; host or cells: MLO-Y4
Summary of the method: (§1)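 Mouse MLO-Y4 cells were switched to serum-free FreeStyle medium for 4 h, chilled, then exposed to 10 nM His-tagged irisin (or adipsin as control) for 20 min. Cells were crosslinked with 1.5 mM DTSSP (30 min, ice), and bound proteins were pulled down on Ni-NTA and eluted with 250 mM imidazole. Eluates were separated by SDS-PAGE, trypsin-digested in gel, TMT 6-plex labelled and quantified by MS3-based LC-MS/MS on an Orbitrap Fusion Lumos.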

[2] = target: T2, MLO-Y4 cell surface proteins (Mus musculus, UniProt P70388); experiment: as above; type: binding; settings: co-precipitated protein Rad50 (RAD50_MOUSE)
T2 construct: endogenous in cells; host or cells: MLO-Y4
T2 sequence (P70388 1-1312): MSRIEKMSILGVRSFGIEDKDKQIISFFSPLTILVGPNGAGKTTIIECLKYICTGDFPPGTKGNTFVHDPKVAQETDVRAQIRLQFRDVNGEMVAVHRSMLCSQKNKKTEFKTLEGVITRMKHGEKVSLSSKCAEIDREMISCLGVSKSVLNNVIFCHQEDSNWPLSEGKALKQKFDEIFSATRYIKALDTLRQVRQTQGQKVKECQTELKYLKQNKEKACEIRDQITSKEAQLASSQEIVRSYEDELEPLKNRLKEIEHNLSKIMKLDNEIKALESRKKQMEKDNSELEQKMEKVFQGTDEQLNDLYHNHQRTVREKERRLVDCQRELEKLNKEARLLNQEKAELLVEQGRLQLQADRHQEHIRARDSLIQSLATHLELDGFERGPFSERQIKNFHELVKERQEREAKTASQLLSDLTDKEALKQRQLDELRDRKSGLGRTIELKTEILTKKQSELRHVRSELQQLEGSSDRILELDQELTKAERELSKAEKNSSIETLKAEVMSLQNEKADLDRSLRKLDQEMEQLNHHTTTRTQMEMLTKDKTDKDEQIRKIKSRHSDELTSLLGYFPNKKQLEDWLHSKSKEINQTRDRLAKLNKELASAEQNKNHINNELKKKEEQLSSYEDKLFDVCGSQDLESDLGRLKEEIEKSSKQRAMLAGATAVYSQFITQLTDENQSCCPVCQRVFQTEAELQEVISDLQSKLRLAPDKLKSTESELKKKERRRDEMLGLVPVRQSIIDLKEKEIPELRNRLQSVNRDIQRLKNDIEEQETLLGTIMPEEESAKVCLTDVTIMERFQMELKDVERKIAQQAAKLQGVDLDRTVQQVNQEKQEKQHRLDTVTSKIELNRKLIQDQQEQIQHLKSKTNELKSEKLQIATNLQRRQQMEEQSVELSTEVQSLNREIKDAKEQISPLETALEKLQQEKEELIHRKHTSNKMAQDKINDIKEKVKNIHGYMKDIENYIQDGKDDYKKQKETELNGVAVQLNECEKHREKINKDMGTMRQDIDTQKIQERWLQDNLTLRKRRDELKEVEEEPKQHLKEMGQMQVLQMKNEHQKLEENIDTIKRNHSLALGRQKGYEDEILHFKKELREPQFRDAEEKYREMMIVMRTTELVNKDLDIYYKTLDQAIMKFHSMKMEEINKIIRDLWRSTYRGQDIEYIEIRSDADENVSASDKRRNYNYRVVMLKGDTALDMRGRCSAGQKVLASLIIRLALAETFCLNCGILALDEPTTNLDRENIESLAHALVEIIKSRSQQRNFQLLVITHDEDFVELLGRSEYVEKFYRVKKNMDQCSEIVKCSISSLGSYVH
Summary of the method: as §1

T1 sequence (P63038 27-573): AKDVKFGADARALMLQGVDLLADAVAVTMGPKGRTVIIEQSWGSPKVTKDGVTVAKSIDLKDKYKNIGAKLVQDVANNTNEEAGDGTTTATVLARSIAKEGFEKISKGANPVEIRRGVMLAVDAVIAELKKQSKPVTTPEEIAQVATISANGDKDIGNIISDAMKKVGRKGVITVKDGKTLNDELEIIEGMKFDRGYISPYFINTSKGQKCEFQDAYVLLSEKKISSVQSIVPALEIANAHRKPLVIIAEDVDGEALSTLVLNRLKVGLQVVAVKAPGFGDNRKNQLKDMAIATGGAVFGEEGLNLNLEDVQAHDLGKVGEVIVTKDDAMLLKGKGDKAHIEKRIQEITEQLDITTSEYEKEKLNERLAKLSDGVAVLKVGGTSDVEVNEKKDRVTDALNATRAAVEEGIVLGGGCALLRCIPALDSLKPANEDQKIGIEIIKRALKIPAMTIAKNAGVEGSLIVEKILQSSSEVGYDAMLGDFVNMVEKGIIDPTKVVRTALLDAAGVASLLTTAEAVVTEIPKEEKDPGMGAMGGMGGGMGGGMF

B1: irisin: secreted cleaved form of FNDC5; recombinant human/mouse irisin with C-terminal his tag produced in HEK293 cells (protein)
chain: DSPSAPVNVTVRHLKANSAVVSWDVLEDEVVIGFAISQQKKDVRMLRFIQEVNTTTRSCALWDLEEDTEYIVHVQAISIQGQSPASEPVLFKTPREAEKMASKNKDEVTMKE
modifications: left off: small tags and cut ends
notes: secreted cleaved form of FNDC5; recombinant human/mouse irisin with C-terminal his tag produced in HEK293 cells
- TMT signal-to-noise ratio [1]: 2002.08
- irisin/adipsin TMT signal-to-noise ratio [1]: 0.470
- TMT signal-to-noise ratio [2]: 10.8209
- irisin/adipsin TMT signal-to-noise ratio [2]: 0.026

— patent US20210063414A1, “METHODS FOR PREVENTING AND/OR TREATING BONE LOSS CONDITIONS BY MODULATING IRISIN” (Dana-Farber Cancer Institute, Inc., priority 2018, published 2021)
